Experimental data published in US20110070615A1 (published 2011).

Target: T1, hu IGF-1R(ECD)-C3-muIgG1Fc (human; mouse, Glycosylated. About 60% of the preparation is cleaved at RKRR (chain pos 708-711) into disulfide-linked alpha and beta chains, 40% is uncleaved. Dimer through receptor and Fc disulfides.)
T1 construct: 60% of the purified protein was processed into α and β chains, 40% unprocessed; also called IGF-1R(ECD)-C3-muFc; IGF-1R-C3-muFc
Assay: phage Fab ELISA, IGF-1R-C3-mFc coated at 5 µg/ml, anti-M13-HRP
Procedure: In 96-well 2-ml deep-well blocks, 480 μl/well 2×YT-CG broth was inoculated with 20 μl of overnight cultures of the individual clones, then incubated at 37° C., 300 rpm for 3 hours. To each well, 50 μl of 1:3 diluted M13KO7 helper phage were added to infect the cells. The block was incubated at 37° C. without shaking for 30 minutes, and then shaken gently for another 30 minutes at 150 rpm. The block was centrifuged at 3600 rpm for 20 minutes to pellet the infected cells. The cell pellet in each well was suspended into 480 μl of 2×YT-CK (2×YT broth containing 100 μg/ml carbenicillin and 40 μg/ml kanamycin), and incubated at 30° C. overnight for about 20 hours. The cell debris was separated by centrifugation at 3600 rpm for 20 minutes. The rescued phage supernatant was used in the phage ELISA to check for IGF-1R-specific, INSR-cross reactive, or mouse Fc binding of individual clones.
Three sets of Nunc MaxiSorb Immunoplates were coated with 100 μ/well of IGF-1R-C3-mFc at 5 μg/ml, INSR-mFc at 5 μg/ml, or mouse IgG1 (catalog #010-0103, Rockland, Gilbertsville, Pa.) at 2 μg/ml in PBS, respectively, at 4° C. overnight. The coated plates were washed 3× with […] of PBS. The washed plates were blocked with 300 μl/well 2% MPBS at room temperature for one hour. Meanwhile, rescued phages of individual clones were pre-blocked by mixing 170 μof rescued phage with 170 μl of 4% MPBS. The blocked plates were washed 5× with 300 μl/well TBST (TBS: 10 mM Tris-HCl, pH 7.5, 1 mM EDTA, 150 mM NaCl; Tween-20. 0.1%). 100 μl/well of pre-blocked phage dilutions were distributed to each set of coated plate, which were incubated at room temperature on a rocker for 90 minutes. The plates were washed 5× with 300 μl/well TBST. 100 μl/well of anti-M13-HRP in 2% MPBS (1:3000 dilution, catalog number 27-9421-01, Amersham Pharmacia Biotech) were distributed, and plates were incubated at room temperature on rocker for one hour. The plates were washed 5× with 300 μl/well TBST. 100 μl/well of the substrate 1-Step™ ABTS (Pierce Biotechnology, Rockford, Ill., catalog number 37615) were added. Plates were incubated for one hour. OD₄₀₅ was measured for signal detection.

B1: L16H16 (Fab, V domains shown)
VH: QVQLQESGPGLVKPSGTLSLTCAVSGGSISSSNWWSWVRQPPGKGLEWIGEIYHSGSTNYNPSLKSRVTISVDKSKNQFSLKLSSVTAADTAVYYCARWTGRTDAFDIWGQGTMVTVSS
VL: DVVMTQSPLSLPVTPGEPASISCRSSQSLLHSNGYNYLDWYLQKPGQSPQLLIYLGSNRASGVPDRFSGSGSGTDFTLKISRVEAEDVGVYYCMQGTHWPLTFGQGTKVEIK
- binding result: binds

B2: L18H18 (Fab, V domains shown)
VH: QVQLVESGGGVVRPGGSLRLSCAASGFTFSSYAMSWVRQAPGKGLEWVSTISGSGGSTYYADSVKGRFTISRDNSKNTLYLQMNSLRAEDTAVYYCAKERGSGWSLDNMDVWGQGTTVTVSS
VL: DIQLTQSPSSVSASVGDRVTITCRASQGISRWLAWYQQKPGKAPRLLIYAASGLQSGVPSRFSGSGSGTDFTLTISNLQPEDFATYYCQQASSFPITFGQGTRLETK
- binding result: binds

B3: L19H19 (Fab, V domains shown)
VH: QVQLVESGPGLVKPSGTLSLTCAVSGGSISSSNWWSWVRQPPGKGLEWIGEIYHSGSTNYNPSLKSRVTISVDKSKNQFSLKLSSVTAADTAVYYCARDSSGFYGMDVWGQGTTVTVSS
VL: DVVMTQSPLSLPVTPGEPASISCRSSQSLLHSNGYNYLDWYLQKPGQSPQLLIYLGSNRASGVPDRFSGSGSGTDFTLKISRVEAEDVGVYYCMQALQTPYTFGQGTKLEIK
- binding result: binds

B4: L20H20 (Fab, V domains shown)
VH: QVQLQESGPGLVKPSGTLSLTCAVSGGSISSSNWWSWVRQPPGKGLEWIGEIYHSGSTNYNPSLKSRVTISVDKSKNQFSLKLSSVTAADTAVYYCARSSSWYWNAFDIWGQGTMVTVSS
VL: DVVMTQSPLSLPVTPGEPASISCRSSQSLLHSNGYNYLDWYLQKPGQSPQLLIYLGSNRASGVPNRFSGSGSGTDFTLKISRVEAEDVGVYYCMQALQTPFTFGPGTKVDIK
- binding result: binds
